T1: GGA2 (from HeLa cell lysate) (human (HeLa cells), UniProt Q9UJY4 1-613)
T1 sequence (looked up): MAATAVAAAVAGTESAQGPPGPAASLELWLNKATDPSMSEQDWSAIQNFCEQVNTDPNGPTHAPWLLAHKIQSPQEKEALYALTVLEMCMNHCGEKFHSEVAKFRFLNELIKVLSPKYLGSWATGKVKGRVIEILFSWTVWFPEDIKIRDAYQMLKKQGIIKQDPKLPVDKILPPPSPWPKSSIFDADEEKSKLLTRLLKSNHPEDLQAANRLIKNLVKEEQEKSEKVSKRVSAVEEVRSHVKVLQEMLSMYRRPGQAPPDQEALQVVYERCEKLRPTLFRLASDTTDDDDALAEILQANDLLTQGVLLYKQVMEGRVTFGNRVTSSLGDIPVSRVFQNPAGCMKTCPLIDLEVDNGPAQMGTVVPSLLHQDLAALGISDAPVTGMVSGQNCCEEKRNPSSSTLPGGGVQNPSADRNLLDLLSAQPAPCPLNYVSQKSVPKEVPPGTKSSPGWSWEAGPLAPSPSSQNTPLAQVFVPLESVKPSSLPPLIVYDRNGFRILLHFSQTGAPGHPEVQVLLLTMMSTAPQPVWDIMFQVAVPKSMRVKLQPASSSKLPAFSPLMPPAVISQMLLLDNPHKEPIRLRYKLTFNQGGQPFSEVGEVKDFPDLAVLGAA

T2: GGA3 (from HeLa cell lysate) (human (HeLa cells), UniProt Q9NZ52 1-723)
T2 sequence (looked up): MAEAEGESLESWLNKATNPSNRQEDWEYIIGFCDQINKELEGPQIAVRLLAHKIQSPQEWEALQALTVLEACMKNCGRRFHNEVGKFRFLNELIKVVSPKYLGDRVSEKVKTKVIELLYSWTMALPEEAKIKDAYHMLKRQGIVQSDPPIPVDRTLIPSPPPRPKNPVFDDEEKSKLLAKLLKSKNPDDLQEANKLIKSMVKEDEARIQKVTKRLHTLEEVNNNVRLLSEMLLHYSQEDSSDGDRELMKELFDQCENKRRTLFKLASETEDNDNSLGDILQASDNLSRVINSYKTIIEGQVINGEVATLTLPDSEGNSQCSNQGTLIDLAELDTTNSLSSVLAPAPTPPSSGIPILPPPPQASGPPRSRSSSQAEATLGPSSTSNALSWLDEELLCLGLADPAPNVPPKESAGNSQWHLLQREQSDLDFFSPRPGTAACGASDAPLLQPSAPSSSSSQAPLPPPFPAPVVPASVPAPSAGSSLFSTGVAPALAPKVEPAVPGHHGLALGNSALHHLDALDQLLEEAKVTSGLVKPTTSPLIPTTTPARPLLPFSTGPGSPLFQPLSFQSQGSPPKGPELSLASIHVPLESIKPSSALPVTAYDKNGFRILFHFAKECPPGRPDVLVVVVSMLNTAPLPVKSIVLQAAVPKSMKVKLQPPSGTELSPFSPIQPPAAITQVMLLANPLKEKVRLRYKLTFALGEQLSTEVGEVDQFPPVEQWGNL

B1: GST fusion protein of the human CIC-7 N-terminus, mutant combining LL23/24AA and LL68/69AA (2xLLAA) (other)
chain: MANVSKKVSWSGRDRDDEEAAPAARRTARPGGGTPLLNGAGPGAARQSPRSALFRVGHMSSVELDDEAADPDMDPPHPFPKEIPHNEKLLSLKYESLDYDNSENQLFLEEERRINHTAFRTVEIKR
notes: not shown: N-terminal GST tag of pGEX-5X-1 and the vector linker
B2: GST fusion protein of the human CIC-7 N-terminus, mutant LL68/69AA (other)
chain: MANVSKKVSWSGRDRDDEEAAPLLRRTARPGGGTPLLNGAGPGAARQSPRSALFRVGHMSSVELDDEAADPDMDPPHPFPKEIPHNEKLLSLKYESLDYDNSENQLFLEEERRINHTAFRTVEIKR
notes: as for B1

Experiments:
[1] = molecular target: T1, GGA2 (from HeLa cell lysate); assay: GST pull-down from HeLa cell extract, immunoblot
[2] = molecular target: T2, GGA3 (from HeLa cell lysate); assay: GST pull-down from HeLa cell extract, immunoblot

Binder | binding result [1] | binding result [2]
B1 | no binding | no binding
B2 | no binding | no binding

From patent publication EP2420830B1 (Forschungsverbund Berlin e.V., dated 2016)
